Experiments:
[1] = biological target: membrane-associated tissue factor (Innovin, Dade) (UniProt P13726)
[2] = biological target: T1, membrane-associated tissue factor (Innovin, Dade), P13726
T1 chain: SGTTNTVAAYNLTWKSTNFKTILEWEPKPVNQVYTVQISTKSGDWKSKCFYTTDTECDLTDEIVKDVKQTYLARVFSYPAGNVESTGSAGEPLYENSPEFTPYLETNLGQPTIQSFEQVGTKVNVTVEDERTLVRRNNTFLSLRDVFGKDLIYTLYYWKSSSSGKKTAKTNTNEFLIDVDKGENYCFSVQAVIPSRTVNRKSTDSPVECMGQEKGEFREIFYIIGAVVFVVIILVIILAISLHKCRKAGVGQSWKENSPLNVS

Molecule: Factor VII mutant Q11E33I34F35
- activity in the competitive assay of Example 6 [1]: displayed similar activity as the Q11E33F34I35 mutant

B1: factor VII mutant Q11E33D36 (protein)
chain: ANAFLEELRQGSLERECKEEQCSFEEAREIFEDADRTKLFWISYSDGDQCASSPCQNGGSCKDQLQSYICFCLPAFEGRNCETHKDDQLICVNENGGCEQYCSDHTGTKRSCRCHEGYSLLADGVSCTPTVEYPCGKIPILEKRNASKPQGRIVGGKVCPKGECPWQVLLLVNGAQLCGGTLINTIWVVSAAHCFDKIKNWRNLIAVLGEHDLSEHDGDEQSRRVAQVIIPSTYVPGTTNHDIALLRLHQPVVLTDHVVPLCLPERTFSERTLAFVRFSLVSGWGQLLDRGATALELMVLNVPRLMTQDCLQQSRKVGDSPNITEYMFCAGYSDGSKDSCKGDSGGPHATHYRGTWYLTGIVSWGQGCATVGHFGVYTRVSQYIEWLQKLMRSEPRPGVLLRAPFP
- activity in the competitive assay of Example 6 [2]: had 70% the activity of the Q11E33 mutant

B2: factor VII F5K (protein)
chain: ANAKLEELRPGSLERECKEEQCSFEEAREIFKDAERTKLFWISYSDGDQCASSPCQNGGSCKDQLQSYICFCLPAFEGRNCETHKDDQLICVNENGGCEQYCSDHTGTKRSCRCHEGYSLLADGVSCTPTVEYPCGKIPILEKRNASKPQGRIVGGKVCPKGECPWQVLLLVNGAQLCGGTLINTIWVVSAAHCFDKIKNWRNLIAVLGEHDLSEHDGDEQSRRVAQVIIPSTYVPGTTNHDIALLRLHQPVVLTDHVVPLCLPERTFSERTLAFVRFSLVSGWGQLLDRGATALELMVLNVPRLMTQDCLQQSRKVGDSPNITEYMFCAGYSDGSKDSCKGDSGGPHATHYRGTWYLTGIVSWGQGCATVGHFGVYTRVSQYIEWLQKLMRSEPRPGVLLRAPFP
- activity in the competitive assay of Example 6 [2]: 33% of the activity of wild type factor VII

Source: patent US7220837
